The results in this text go back to the supplement of paper PMC9170038.

The data set relates to MS2 coat protein. The data set can be described thus: apparent KD of MS2 coat protein; designed switch direction (-1 OFF switch, 1 ON switch): -1; higher = weaker reporter binding. The procedure, abridged: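 Apparent KD, taken as the median over clusters for each design, was obtained by curve-fitting normalised cluster fluorescence. Designed RNA switches had been transcribed on Illumina chips by stalled E. coli RNA polymerase and titrated with SNAP-549-labelled MS2 coat protein, doubling from 0.7 or 1.5 nM to 3 µM.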

The mark [1] stands for this setting: Eterna round: R95, input ligand: microRNA oligo, concentration not stated.
[2] abbreviates: Eterna round: R95, input ligand: FMN 200 uM.
[3] abbreviates: Eterna round: R95, input ligand: none.
Where [4] appears, read: input ligand: microRNA oligo, concentration not stated.

As to “CUUUUGUGAGGAUAUUAGUAGUAAAUAAAUAAAAUUACUACUGAGAAGGCACAUGAGGAUCACCCAUGUUCUUC [salish99_ex4_r3_066] (puzzle: Exclusion 4)”, under setting [1], the “apparent KD of MS2 coat protein” value is 18.8 nM.

“CUUUUGUGAGGAUAUUAGUAGUAAUACAAUAGUAUUACUACUGAGAAGGCACAUGAGGAUCACCCAUGUUCCUC [Ex4 344 Omei mod 5] (puzzle: Exclusion 4)”: the “apparent KD of MS2 coat protein” value under setting [1] is 36.5 nM.

As for “GAAAACGCAGAGGAUAUUUCAGGUCAAAGCUGCAAAGAAGGCUGCACAUGAGGAUCACCCAUGUGGUCAAUAAA [Mod of Quesina 21 - Jieux - Exclusion 6] (Eterna round: R97, puzzle: Exclusion 6)”, the “apparent KD of MS2 coat protein” value came to 419 nM (input ligand: FMN 200 uM) and 34.3 nM (input ligand: none).

As to “GAAAACGUAGGAUAUUAAUACUUAUACAUGAGGAUCACCCAUGUUUGGUGGGUCAAAGAAUGAGAAGGGCGAUGAA [EX5 #10] (Eterna round: R97, puzzle: Exclusion 5)”, the “apparent KD of MS2 coat protein” value (input ligand: FMN 200 uM) was 261 nM and the “apparent KD of MS2 coat protein” value (input ligand: none) came to 376 nM.

For “GAAAAGGAAGGAUAUACGAAAAAAAAGGGUAGAAAAAAAACACAUGAGGAUCACCCAUGUAGAAGGUCCAAAAG [salish99_ex2_r3_092] (puzzle: Exclusion 2)”, the “apparent KD of MS2 coat protein” value by setting is: under setting [2], 151 nM; under setting [1], 43.5 nM; under setting [3], 54.5 nM.

Take “GAAAAGGUAGGAUAUACGAAAAAAAAAGGUAGAAAAAAAACACAUGAGGAUCACCCAUGUAGAAGGACCAAAAG [salish99_ex2_r3_070] (puzzle: Exclusion 2)”: the “apparent KD of MS2 coat protein” value under setting [2] amounted to 37.4 nM, the “apparent KD of MS2 coat protein” value under setting [1] worked out at 51.5 nM and the “apparent KD of MS2 coat protein” value under setting [3] came to 30.6 nM.

Regarding “GAAAAGGUAGGAUAUACGAAAAAAAAGGGUAGAAAAAAAACACAUGAGGAUCACCCAUGUAGAAGGACCAAGAG [salish99_ex2_r3_039] (puzzle: Exclusion 2)”, the “apparent KD of MS2 coat protein” value under setting [2] stood at 61.7 nM, the “apparent KD of MS2 coat protein” value under setting [1] turned out to be 24.3 nM and the “apparent KD of MS2 coat protein” value under setting [3] was 31.9 nM.

In the case of “GAAAAGGUAGGAUAUACGAAAUAAAAGGGUAGAAAAAAAACACAUGAGGAUCACCCAUGUAGAAGGACCAAAAG [salish99_ex2_r3_084] (puzzle: Exclusion 2)”, the “apparent KD of MS2 coat protein” value by setting is: under setting [2], 52.9 nM; under setting [1], 15.5 nM; under setting [3], 34.7 nM.

As for “GAAAAGGUAGGAUAUACGAUAAAAAAGGGUAGAAAAAAAACACAUGAGGAUCACCCAUGUAGAAGGACCAAAAG [salish99_ex2_r3_086] (puzzle: Exclusion 2)”, the “apparent KD of MS2 coat protein” value came out at 95.2 nM under setting [2], 20.7 nM under setting [1] and 30 nM under setting [3].

For “GAAAAGGUAGGAUAUACGAUAAGAAAGGGUAGAUAAUAAACACAUGAGGAUCACCCAUGUAGAAGGACCAAAAG [salish99_ex2_r3_102] (puzzle: Exclusion 2)”, the “apparent KD of MS2 coat protein” value was 139 nM under setting [2], 35.4 nM under setting [1] and 39.7 nM under setting [3].

As to “GAAAAGUCAGGAUAUGCAGAUAAAAAAACGAAAAAAAAUCUGCAGAAGGGACAUGAGGAUCACCCAUGUAAAAG [Mat - Exclusion 4 - Mayanna - D110] (Eterna round: R96, puzzle: Exclusion 4)”, the “apparent KD of MS2 coat protein” value under setting [4] was found to be 29.1 nM.

Take “GAAAGCUUUGAGCUCGAUCACAUGAGGAUCACCCAUGUGGGAGCCAGGCGACGGCAUUCUGCGAGGGCGACUUUUGG [Eternabot (L2) Solution 42] (Eterna round: R97, puzzle: Sensor, turn-off variant 1)”: the “apparent KD of MS2 coat protein” value by setting is: (input ligand: FMN 200 uM) 17.8 nM; (input ligand: none) 15.4 nM.

In the case of “GAACGUGGUGAGGAUAUCCGGUCUAACGUGCCAGGAGAAGGCGCCACAUGAGGAUCACCCAUGUGGGUCCCGCC [EX6 B.9] (Eterna round: R97, puzzle: Exclusion 6)”, the “apparent KD of MS2 coat protein” value reads like this: (input ligand: FMN 200 uM) 26 nM; (input ligand: none) 14.9 nM.

“GAAGGGCGUCUAGGAUAUAGUAUACGGCGAACAUGAGGAUCACCCAUGUGUCCGAAUGCGGCGAGCUAGAAGGAGAAUUCGCCC [Enuseszave] (Eterna round: R96, puzzle: Exclusion NG 2)”: the “apparent KD of MS2 coat protein” value by setting is: (input ligand: FMN 200 uM) 72.4 nM; under setting [4], 33.4 nM; (input ligand: none) 49.1 nM.

For “GAAUAGCGAGGAUAUACAUGAGGAUCACCCAUGUGAUCCUUAGGCUGUUCAAGCCAAUGUAGAAGGCGCAAAUU [jl-ex3.4.58 ViennaUCT mod] (Eterna round: R97, puzzle: Exclusion 3)”, the “apparent KD of MS2 coat protein” value runs as follows: (input ligand: FMN 200 uM) 76.6 nM; (input ligand: none) 129 nM.

In the case of “GAAUUAAUUAAUUAAUAAUACAUGAGGAUCACCCAUGUAGAUCCUACAUACAAUUUAAGUAGCUCGUCUUAUAAUUA [Stov1/1-A2] (Eterna round: R97, puzzle: Sensor, turn-off variant 1)”, the “apparent KD of MS2 coat protein” value came to 108 nM (input ligand: FMN 200 uM) and 202 nM (input ligand: none).

“GACACUCAUGUAAGUAUUUACAUGAGGAUCACCCAUGUACCACUAGAAGACUAGGGAACGAAACGAGCUGGCUGUCA [Eternabot (Original) Solution 6] (Eterna round: R97, puzzle: Sensor, turn-off variant 1)”: the “apparent KD of MS2 coat protein” value by setting is: (input ligand: FMN 200 uM) 1290 nM; (input ligand: none) 567 nM.

Take “GACAGCAUGCAGGAUAUACCUCCUCUGCGGACGGUAGAAGGGCGUACAUGAGGAUCACCCAUGUCACCCAUUUC [Eternabot (L2) Solution 61] (Eterna round: R97, puzzle: Exclusion 6)”: the “apparent KD of MS2 coat protein” value reads like this: (input ligand: FMN 200 uM) 13.9 nM; (input ligand: none) 14.4 nM.

As to “GACAUACAUGAGGAUCACCCAUGUAAGGAUAUACGCAGUAGACUCCGAGGGACCUGAAGUAGAAGGUACAGGGU [Eternabot (L2) Solution 72] (Eterna round: R97, puzzle: Exclusion 1)”, the “apparent KD of MS2 coat protein” value was found to be 103 nM (input ligand: FMN 200 uM) and 34.5 nM (input ligand: none).

Take “GACCCACAUGAGGAUCACCCAUGUGAGGAUAUCAUGCUUCGUAGUAAACUACGAAGUGUGAGAAGGCACAAUGG [Omei Ex1 C7] (Eterna round: R97, puzzle: Exclusion 1)”: the “apparent KD of MS2 coat protein” value is, setting by setting: (input ligand: FMN 200 uM) 134 nM; (input ligand: none) 37.4 nM.

For “GACCGGACGUGGUCAGGUAACAUGAGGAUCACCCAUGUAGGUCUAAGAACAAGCCUUUUGUACGCUCGUCUUAUAUU [JR_SV3TOV1_Sub060] (puzzle: Sensor v3, turn-off variant 1)”, the “apparent KD of MS2 coat protein” value by setting is: under setting [2], 46.1 nM; under setting [1], 46.8 nM; under setting [3], 55.8 nM.

For “GACCGGACGUGGUCAGGUAACAUGAGGAUCACCCAUGUAGGUCUAGGAACAAGCUUUUUGAAAGCUCGUCUUAUAAA [JR_SV3TOV1_Sub058] (puzzle: Sensor v3, turn-off variant 1)”, the “apparent KD of MS2 coat protein” value runs as follows: under setting [2], 56.7 nM; under setting [1], 33.6 nM; under setting [3], 69.3 nM.

“GACCUACAUGAGGAUCACCCAUGUGAGGAUAUAUUGUUAUUUAUAAUAUUUUUUAGUGGUAGAAGGCGCGUGAU [JR_Exc1_Sub018] (Eterna round: R97, puzzle: Exclusion 1)”: the “apparent KD of MS2 coat protein” value (input ligand: FMN 200 uM) worked out at 17.9 nM and the “apparent KD of MS2 coat protein” value (input ligand: none) was 20.2 nM.
